Columns and labels:
HLA-B07.02 [1] = target: T1, HLA-B07.02 (human); test: pMHC-I dissociation half-life, 125I-b2m
T1 construct: Purified class I MHC
Outline: (§1)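 Biotinylated MHC-I heavy chain made in E. coli, captured on streptavidin plates and complexed with peptide and radiolabelled light chain. Dissociation started with excess unlabelled light chain at 37 °C. Stability is the half-life in hours from scintillation counts.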

HLA-B07.02 [2] = target: T1, HLA-B07.02; test: competition with radiolabeled reference peptide, purified MHC I
Procedure: (§2) Peptides were incubated at varying concentrations with these complexes for 2 days, and the amount of remaining radiolabeled peptide bound to […] was measured using size exclusion gel-filtration.

[3] = target: HLA-B08.01 class I MHC molecule (prepared complex) (human); test: dissociation of peptide-MHC-I complex at 37 C, 125I-labelled b2m, scintillation
Procedure: (§3) Briefly, synthetic genes encoding biotinylated MHC-I heavy and light chains are expressed in E. coli and purified from inclusion bodies using standard methods. […] These reactions are carried out in streptavidin coated microplates to bind the biotinylated MHC-I heavy chains to the surface and allow measurement of radiolabeled light chain to monitor complex formation. Dissociation is initiated by addition of higher concentrations of unlabeled light-chain and incubation at 37° C. Stability is defined as the length of time in hours it takes for half of the complexes to dissociate, as measured by scintillation counts.

HLA-B07.02 [4] = target: T2, HLA-B07.02 (human); test: competition vs radiolabeled reference peptide on purified MHC I, gel filtration
T2 construct: As for HLA-A02.01
Procedure: as §2

HLA-A11.01 [5] = target: T3, HLA-A11.01 (human); test: competition with radiolabeled reference peptide, purified MHC I
T3 construct: Purified class I MHC
Procedure: as §2

HLA-A03.01 [6] = target: T4, HLA-A03.01 (human); test: as above
T4 construct: Purified class I MHC
Procedure: as §2

HLA-A03.01 [7] = target: T5, HLA-A03.01 (human); test: competition vs radiolabeled reference peptide on purified MHC I, gel filtration
T5 construct: As for HLA-A02.01
Procedure: as §2

HLA-A01.01 = target: T6, HLA-A01.01 (human); test: as above
T6 construct: As for HLA-A02.01
Procedure: as §2

[8] = target: T7, HLA class I molecule B07.02; test: pMHC-I dissociation assay with 125I-labeled beta2m light chain at 37 C, scintillation counts; time in hours for half of the complexes to dissociate
T7 construct: Purified MHC class I complex; also called HLA-B07:02
Procedure: as §3

[9] = target: T7, HLA class I molecule B07.02; test: competition with radiolabeled reference peptide on purified MHC I
Procedure: as §2

HLA-A*30:02 = HLA-A*30:02 (human); test: peptides eluted from HLA-peptide complexes by acid wash, targeted MS/MS (PRM); 293T cells transduced with GATA3 neoORF, expressing HLA-A*30:02
Procedure: Between 50 and 700 million of the transduced cells expressing peptides encoded by the GATA3 neoORF sequence were cultured and peptides were eluted from HLA-peptide complexes using an acid wash. Eluted peptides were then analyzed by targeted MS/MS using PRM.

HLA-A24.02 [10] = target: T8, HLA-A24.02 (human); test: competition vs radiolabeled reference peptide on purified MHC I, gel filtration
T8 construct: As for HLA-A02.01
Procedure: as §2

HLA-A02.01 [11] = target: HLA-A02.01 (human); test: as above
Procedure: as §2

HLA-A24.02 [12] = target: T8, HLA-A24.02; test: pMHC-I complex dissociation at 37 C, 125I-b2m, half-life
Outline: as §1

HLA-A02.01 [13] = target: HLA-A02.01 (human); test: as above
Outline: as §1

[14] = target: T9, HLA class I molecule A02.01; test: pMHC-I dissociation assay with 125I-labeled beta2m light chain at 37 C, scintillation counts; time in hours for half of the complexes to dissociate
T9 construct: Purified MHC class I complex; also called HLA-A02:01
Procedure: as §3

[15] = target: T9, HLA class I molecule A02.01; test: competition with radiolabeled reference peptide on purified MHC I
Procedure: as §2

HLA-B08.01 [16] = target: T10, HLA-B08.01 (human); test: pMHC-I dissociation half-life, 125I-b2m
T10 construct: Purified class I MHC
Outline: as §1

HLA-B08.01 [17] = target: T11, HLA-B08.01 (human); test: competition vs radiolabeled reference peptide on purified MHC I, gel filtration
T11 construct: As for HLA-A02.01
Procedure: as §2

HLA-B08.01 [18] = target: T11, HLA-B08.01; test: pMHC-I complex dissociation at 37 C, 125I-b2m, half-life
Outline: as §1

[19] = target: T12, HLA class I molecule A03.01; test: pMHC-I dissociation assay with 125I-labeled beta2m light chain at 37 C, scintillation counts; time in hours for half of the complexes to dissociate
T12 construct: Purified MHC class I complex; also called HLA-A03:01
Procedure: as §3

[20] = target: T12, HLA class I molecule A03.01; test: competition with radiolabeled reference peptide on purified MHC I
Procedure: as §2

HLA-A11.01 [21] = target: T3, HLA-A11.01; test: pMHC-I dissociation half-life, 125I-b2m
Outline: as §1

HLA-A03.01 [22] = target: T4, HLA-A03.01; test: pMHC-I dissociation half-life, 125I-b2m
Outline: as §1

[23] = target: T13, HLA class I molecule B08.01; test: pMHC-I dissociation assay with 125I-labeled beta2m light chain at 37 C, scintillation counts; time in hours for half of the complexes to dissociate
T13 construct: Purified MHC class I complex; also called HLA-B08:01
Procedure: as §3

HLA-A02.01 [24] = target: T14, HLA-A02.01 (human); test: pMHC-I dissociation half-life, 125I-b2m
T14 construct: Purified class I MHC
Outline: as §1

Binder: KPTRAATVSV (also called TP53, QPSL)
- Stability (T1/2 (h)) (HLA-B07.02 [1]): 3 h
- IC50 (HLA-B07.02 [2]): 8 nM

B1: EGFR_T790M peptide VQLIMQLMPF (peptide)
peptide: VQLIMQLMPF
notes: synthetic peptide holding the EGFR T790M mutation
- Stability (half-life (hr.)) [3]: 0 h

Binder: YPAYSKDSGL (also called β2M, . . ; SIRH)
- IC50 (HLA-B07.02 [4]): 79.5 nM

Binder: SLKKVPALK (also called SMAP1(-1))
- IC50 (HLA-A11.01 [5]): 129 nM
- IC50 (HLA-A03.01 [6]): 4.4 nM

Binder: CLSFLSSWDY (also called C15ORF40(+1))
- IC50 (HLA-A03.01 [7]): 2710 nM
- IC50 (HLA-A01.01): 987 nM

Binder: LPRKPTRAAT (also called TP53, QPSL)
- Stability (T1/2 (h)) (HLA-B07.02 [1]): 3.7 h
- IC50 (HLA-B07.02 [2]): 3 nM

Binder: KPKRDGYMFL (also called GATA3 . . ; CSNH)
- Observed MHC Stability [8]: 3.3 h
- IC50 [9]: 98.1 nM

Binder: IMKPKRDGY [GATA3 neoORF peptide IMKPKRDGY]
- binding result (HLA-A*30:02): binds

Binder: GPPARVPAV (also called GATA3 . . ; CSNH)
- Observed MHC Stability [8]: 1.6 h
- IC50 [9]: 221 nM

Binder: VVPLCDLLL (also called ESR1, Y537C)
- IC50 (HLA-A24.02 [10]): 3890 nM
- IC50 (HLA-A02.01 [11]): 1200 nM
- Stability (T1/2 (h)) (HLA-A24.02 [12]): 0.4 h
- Stability (T1/2 (h)) (HLA-A02.01 [13]): 0 h

Binder: VVPLSDLLL (also called ESR1, Y537S)
- IC50 (HLA-A24.02 [10]): 8250 nM
- IC50 (HLA-A02.01 [11]): 2550 nM
- Stability (T1/2 (h)) (HLA-A24.02 [12]): 0.5 h
- Stability (T1/2 (h)) (HLA-A02.01 [13]): 0 h

Binder: MSVCFFFFCY (also called CNOT1(-1))
- IC50 (HLA-A01.01): 4370 nM

Binder: AMTTSSSQK (also called TGFBR2(-1))
- IC50 (HLA-A11.01 [5]): 162 nM
- IC50 (HLA-A03.01 [6]): 8.3 nM

B2: EGFR_T790M peptide MQLMPFGCL (peptide)
peptide: MQLMPFGCL
notes: as for B1
- Stability (half-life (hr.)) [3]: 0 h

Binder: MLTGPPARV (also called GATA3 . . ; CSNH)
- Observed MHC Stability [14]: 5.8 h
- IC50 [15]: 10.6 nM

Binder: LPSQRRNHWM (also called TP53, CSES)
- Stability (T1/2 (h)) (HLA-B07.02 [1]): 6.5 h
- Stability (T1/2 (h)) (HLA-B08.01 [16]): 0.7 h
- IC50 (HLA-B07.02 [2]): 10 nM

Binder: HPRPAPASA (also called TP53, SHST)
- Stability (T1/2 (h)) (HLA-B07.02 [1]): 4.9 h
- Stability (T1/2 (h)) (HLA-B08.01 [16]): 0 h
- IC50 (HLA-B07.02 [2]): 11 nM

Binder: LATEKSRWS (also called BRAF, V600E)
- IC50 (HLA-A02.01 [11]): 61000 nM
- IC50 (HLA-B08.01 [17]): 37000 nM
- Stability (T1/2 (h)) (HLA-A02.01 [13]): 0 h
- Stability (T1/2 (h)) (HLA-B08.01 [18]): 0 h

B3: EGFR_T790M peptide IMQLMPFGCL (peptide)
peptide: IMQLMPFGCL
notes: as for B1
- Stability (half-life (hr.)) [3]: 0 h

Binder: SAMTTSSSQK (also called TGFBR2(-1))
- IC50 (HLA-A11.01 [5]): 15.8 nM
- IC50 (HLA-A03.01 [6]): 15.7 nM

Binder: LATEKSRWSG (also called BRAF, V600E)
- IC50 (HLA-A02.01 [11]): 23300 nM
- IC50 (HLA-B08.01 [17]): 46600 nM
- Stability (T1/2 (h)) (HLA-A02.01 [13]): 0 h
- Stability (T1/2 (h)) (HLA-B08.01 [18]): 0 h

Binder: YMANGSLLNY (also called BTK, C481S)
- IC50 (HLA-A03.01 [7]): 95.9 nM
- IC50 (HLA-A01.01): 13.2 nM

Binder: LSFLSSWDY (also called C15ORF40(+1))
- IC50 (HLA-A01.01): 52.9 nM

Binder: YMFLKAESK (also called GATA3 . . ; CSNH)
- Observed MHC Stability [19]: 0.3 h
- IC50 [20]: 79.8 nM

Binder: VPLYGLLLEM (also called ESR1, D538G)
- IC50 (HLA-B07.02 [4]): 27.9 nM

Binder: KPKRDGYMF (also called GATA3 . . ; CSNH)
- Observed MHC Stability [8]: 8.6 h
- IC50 [9]: 28.2 nM

Binder: WLHKRGKYI (also called AKT1, E17K)
- IC50 (HLA-B08.01 [17]): 417 nM
- Stability (T1/2 (h)) (HLA-B08.01 [18]): 1.3 h

Binder: VVGACGVGK (also called KRAS, G12C)
- Measured stability (HLA-A11.01 [21]): 10 h
- Measured stability (HLA-A03.01 [22]): 5 h

Binder: VVGADGVGK (also called KRAS, G12D)
- Measured stability (HLA-A11.01 [21]): 3.4 h

Binder: FATLQRSSL (also called GATA3 . . ; CSNH)
- Observed MHC Stability [8]: 0.7 h
- Observed MHC Stability [23]: 0 h
- IC50 [9]: 14 nM

Binder: FLPSTLKSL (also called ESR1, S463P)
- IC50 (HLA-B08.01 [17]): 1970 nM
- Stability (T1/2 (h)) (HLA-B08.01 [18]): 0 h

Binder: RLSSCVPVA (also called TGFBR2(-1))
- Stability (T1/2 (h)) (HLA-A02.01 [24]): 18.7 h
- Stability (T1/2 (h)) (HLA-A03.01 [22]): 0 h

B4: EGFR_T790M peptide QLIMQLMPF (peptide)
peptide: QLIMQLMPF
notes: as for B1
- Stability (half-life (hr.)) [3]: 0 h

Binder: SIMKPKRDGY [GATA3 neoORF peptide SIMKPKRDGY]
- binding result (HLA-A*30:02): binds

Binder: KISNWSLKK (also called SMAP1(-1))
- IC50 (HLA-A11.01 [5]): 9.8 nM
- IC50 (HLA-A03.01 [6]): 8.8 nM

Binder: TLQRSSLWCL (also called GATA3 . . ; CSNH)
- Observed MHC Stability [14]: 0.5 h
- IC50 [15]: 118 nM

B5: EGFR_T790M peptide MQLMPFGCLL (peptide)
peptide: MQLMPFGCLL
notes: as for B1
- Stability (half-life (hr.)) [3]: 0 h

Binder: VVVGADGVGK (also called KRAS, G12D)
- Measured stability (HLA-A11.01 [21]): 13 h
- Measured stability (HLA-A03.01 [22]): 2.3 h

Binder: VVVGAVGVGK (also called KRAS, G12V)
- Measured stability (HLA-A11.01 [21]): 24.3 h
- Measured stability (HLA-A03.01 [22]): 6.7 h

Binder: MFATLQRSSL (also called GATA3 . . ; CSNH)
- Observed MHC Stability [8]: 0 h
- Observed MHC Stability [23]: 0 h
- IC50 [9]: 267 nM

From patent US20220282217A1 (BIONTECH US, published 2022)
